Results reported in paper PMC13139468, “A model for drug transport across two membranes of Gram-negative bacteria by an MFS tripartite assembly” (Nature Communications, 2026).

B3: EmrA (EmrA part of the EmrB-EmrA fusion protein, C-terminal 6His) (natural protein)
chain: MSANAETQTPQQPVKKSGKRKRLLLLLTLLFIIIAVAIGIYWFLVLRHFEETDDAYVAGNQIQIMSQVSGSVTKVWADNTDFVKEGDVLVTLDPTDARQAFEKAKTALASSVRQTHQLMINSKQLQANIEVQKIALAKAQSDYNRRVPLGNANLIGREELQHARDAVTSAQAQLDVAIQQYNANQAMILGTKLEDQPAVQQAATEVRNAWLALERTRIISPMTGYVSRRAVQPGAQISPTTPLMAVVPATNMWVDANFKETQIANMRIGQPVTITTDIYGDDVKYTGKVVGLDMGTGSAFSLLPAQNATGNWIKVVQRLPVRIELDQKQLEQYPLRIGLSTLVSVNTTNRDGQVLANKVRSTPVAVSTAREISLAPVNKLIDDIVKANAG
notes: also called EmrB-EmrA fusion protein (EmrA part); fused EmrA; not shown: His6, C-terminal, kept

Assays:
[1] = target: B3; assay: cryo-EM structure; EmrAB-TolC pump-EA (EmrB-EmrA fusion protein, modified free EmrA, TolC-FLAG), co-expressed and purified as a complex, in peptidisc, 0.7 mg/mL, holey carbon grids; single-particle cryo-EM, 300 kV; maps at 3.13 Å and 3.14 Å; conditions: both partners purified
[2] = target: the molecule itself; assay: as above
[3] = target: T1, EmrB (modified EmrB, the BRIL-EmrB-ALFA part of the EmrB-EmrA fusion protein) (E. coli K-12 strain MG1655, UniProt P0AEJ0 13-498); assay: as above; conditions: both partners purified
T1 construct: also called EmrB IM transporter; EmrB-EmrA fusion protein (EmrB part); not shown: BRIL (thermostabilized apocytochrome b562RIL), N-terminal, kept; ALFA, C-terminal, kept
T1 sequence: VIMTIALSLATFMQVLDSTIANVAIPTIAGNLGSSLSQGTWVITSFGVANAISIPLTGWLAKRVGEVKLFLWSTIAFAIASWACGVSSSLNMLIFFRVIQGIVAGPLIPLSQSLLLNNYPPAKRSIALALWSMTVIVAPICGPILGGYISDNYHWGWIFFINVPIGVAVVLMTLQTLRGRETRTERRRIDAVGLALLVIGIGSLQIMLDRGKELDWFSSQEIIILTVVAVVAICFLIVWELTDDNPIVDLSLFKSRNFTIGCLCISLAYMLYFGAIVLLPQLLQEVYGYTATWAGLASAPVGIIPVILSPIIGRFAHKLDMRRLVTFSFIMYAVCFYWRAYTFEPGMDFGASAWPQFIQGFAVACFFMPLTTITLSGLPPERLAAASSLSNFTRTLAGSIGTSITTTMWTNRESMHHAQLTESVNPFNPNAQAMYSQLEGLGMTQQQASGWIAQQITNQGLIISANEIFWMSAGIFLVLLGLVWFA

TolC (TolC-FLAG) [4] = target: T2, TolC (TolC-FLAG) (E. coli K-12 strain MG1655, UniProt P02930 23-493); assay: as above; conditions: both partners purified
T2 construct: also called TolC OM channel; not shown: FLAG, C-terminal, kept
T2 sequence: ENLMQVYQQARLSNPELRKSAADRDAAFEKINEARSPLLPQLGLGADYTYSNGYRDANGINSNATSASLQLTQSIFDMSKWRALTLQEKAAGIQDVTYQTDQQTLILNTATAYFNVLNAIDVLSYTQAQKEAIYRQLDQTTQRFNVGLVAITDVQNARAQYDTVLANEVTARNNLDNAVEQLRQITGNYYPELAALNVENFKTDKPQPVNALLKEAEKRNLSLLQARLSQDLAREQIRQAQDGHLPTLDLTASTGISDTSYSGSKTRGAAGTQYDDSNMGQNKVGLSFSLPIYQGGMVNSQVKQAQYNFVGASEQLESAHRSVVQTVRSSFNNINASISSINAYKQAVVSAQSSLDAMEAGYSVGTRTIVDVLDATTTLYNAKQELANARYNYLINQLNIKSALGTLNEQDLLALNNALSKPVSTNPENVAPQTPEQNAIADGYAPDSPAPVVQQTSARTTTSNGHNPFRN

[5] = target: the molecule itself; assay: cryo-EM structure; EmrAB-TolC pump-FA (EmrB-EmrA fusion protein, wild-type free EmrA, TolC-FLAG), co-expressed and purified as a complex, in peptidisc, 0.1 mg/mL, graphene-covered grids; single-particle cryo-EM, 300 kV; maps at 3.59 Å and 3.66 Å
[6] = target: T1, EmrB (modified EmrB, the BRIL-EmrB-ALFA …); assay: as above; conditions: both partners purified
TolC (TolC-FLAG) [7] = target: T2, TolC (TolC-FLAG); assay: as above; conditions: both partners purified

B1: modified free EmrA (N-terminal residues 1-47 replaced by residues 1-27 of AcrA) (other)
chain: CDDHFEETDDAYVAGNQIQIMSQVSGSVTKVWADNTDFVKEGDVLVTLDPTDARQAFEKAKTALASSVRQTHQLMINSKQLQANIEVQKIALAKAQSDYNRRVPLGNANLIGREELQHARDAVTSAQAQLDVAIQQYNANQAMILGTKLEDQPAVQQAATEVRNAWLALERTRIISPMTGYVSRRAVQPGAQISPTTPLMAVVPATNMWVDANFKETQIANMRIGQPVTITTDIYGDDVKYTGKVVGLDMGTGSAFSLLPAQNATGNWIKVVQRLPVRIELDQKQLEQYPLRIGLSTLVSVNTTNRDGQVLANKVRSTPVAVSTAREISLAPVNKLIDDIVKANAG
modifications: C25 (AcrA numbering) modified by a palmitoyl acid chain
notes: also called acrAsignal-ΔemrA; free EmrA of pump-EA
With B1 the binding result [1] was “binds”, the “stoichiometry N” value [2] was 6 and the binding result [3] was “binds”. B1: binds (TolC (TolC-FLAG) [4]).

B2: wild-type free EmrA (natural protein)
chain: MSANAETQTPQQPVKKSGKRKRLLLLLTLLFIIIAVAIGIYWFLVLRHFEETDDAYVAGNQIQIMSQVSGSVTKVWADNTDFVKEGDVLVTLDPTDARQAFEKAKTALASSVRQTHQLMINSKQLQANIEVQKIALAKAQSDYNRRVPLGNANLIGREELQHARDAVTSAQAQLDVAIQQYNANQAMILGTKLEDQPAVQQAATEVRNAWLALERTRIISPMTGYVSRRAVQPGAQISPTTPLMAVVPATNMWVDANFKETQIANMRIGQPVTITTDIYGDDVKYTGKVVGLDMGTGSAFSLLPAQNATGNWIKVVQRLPVRIELDQKQLEQYPLRIGLSTLVSVNTTNRDGQVLANKVRSTPVAVSTAREISLAPVNKLIDDIVKANAG
notes: also called free EmrA of pump-FA
In the case of B2, the “stoichiometry N” value [5] is reported as 6, the binding result [6] is reported as “binds” and the binding result (TolC (TolC-FLAG) [7]) is reported as “binds”.

B3: binds (TolC (TolC-FLAG) [7]); binds [3].
